Data as given in PMC6753076.

Target: PELI1 (UniProt Q96FA3)
Assay: anti-Flag co-immunoprecipitation, immunoblot
Settings: reference: wild type; sites T382

HPD (from UniProt P32754) T382A
binding against the reference: lost
